The conditions of the data set: Saccharomyces cerevisiae (strain ATCC 204508 / S288c), CD, reversible: yes; for denaturant m value / denaturant midpoint (higher = more stable) / unfolding free energy: 27 °C, GdnHCl.
[1] abbreviates: pH 4.6, glycine 40 mM, structure 1YCC.
Setting [2] is: pH 4.6, Thermal, Sodium acetate 50 mM, structure 1YCC.
Where [3] appears, read: pH 6, Thermal, Sodium phosphate 50 mM, structure 1YCC.
Where [4] appears, read: pH 7.2, Potassium phosphate 50 mM, structure 1YCC.
[5] abbreviates: pH 6, Thermal, Sodium phosphate 50 mM.
[6] abbreviates: pH 7.2, Potassium phosphate 50 mM.

For orientation: Tm means the temperature at the midpoint of the melting transition.

Sequence of Cytochrome c isoform 1 V26C, P00044 (P00044 whole entry V26C, canonical isoform): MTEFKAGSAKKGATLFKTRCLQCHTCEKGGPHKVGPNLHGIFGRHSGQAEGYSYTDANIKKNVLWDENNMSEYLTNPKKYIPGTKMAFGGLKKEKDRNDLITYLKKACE
Sequence of Cytochrome c isoform 1 wild type, P00044 (P00044 whole entry, canonical isoform): as the sequence (P00044 whole entry V26C, canonical isoform) above, with C26V counted along it

Consider Cytochrome c isoform 1 V26C, P00044, for which, under setting [1], the denaturant m value was 2.7 kcal/mol/M, the “denaturant midpoint (higher = more stable)” value (“denaturant midpoint” below) came out at 1.1 M and the unfolding free energy was 2.9 kcal/mol. Also, under setting [2], the Tm came out at 53.4 °C and the “unfolding enthalpy (van 't Hoff)” value worked out at 64.5 kcal/mol. Further, under setting [3], the Tm was 58.5 °C; the “change of melting temperature, mutant - wild type (higher = more stable)” value is 6.8 °C; the “unfolding enthalpy (van 't Hoff)” value came to 63.8 kcal/mol. Further, under setting [4], the denaturant m value came out at 2.6 kcal/mol/M, the “denaturant midpoint” value was 1.2 M and the unfolding free energy amounted to 3 kcal/mol.
As to “Cytochrome c isoform 1 wild type, P00044”, under setting [5], the Tm was 51.7 °C and the “unfolding enthalpy (van 't Hoff)” value is 84.5 kcal/mol. Also, under setting [6], the denaturant m value came to 4.6 kcal/mol/M, the “denaturant midpoint” value is 0.9 M and the unfolding free energy worked out at 4.1 kcal/mol.

Source of the values: FireProtDB (doi:10.1021/bi00164a007).
